According to patent US20250223280A1:
Values belong to the binder of their own block, whether it stands above or below them. Bridges are numbered along the chain shown (N, C = ends). [ ]: non-standard residue; d: D form. Pro(4S-NH2) = N[C@@H]1CN[C@H](C(=O)O)C1

Key:
IgG [1] = assay: SPR, IgG immobilised on CM5 chip, compound as analyte; value from the legend of the grade (**** = Kd <100 nM)
IgG [2] = assay: SPR, IgG immobilised on CM5 chip, compound as analyte; value from the legend of the grade (++++ = Kd <100 nM)

B5: Intermediate 5 (peptide)
peptide: PDCAWHLGELVWCTP
modifications: residue 1 = (2S,4S)-4-aminoproline (free 4-amino group); residue 15 = D-Pro; backbone cyclised head to tail; disulfide Cys3-Cys13
Kd (IgG [2]): < 100 nM

B12: Intermediate 9 (peptide)
peptide: cyclo(PDCAWHLGELVWCT[dP])
modifications: disulfide 3-13; not fully specified (residue 1)
Kd (IgG [2]): < 100 nM

B14: Intermediate 6 (peptide)
peptide: PDCAWHLGELVWCTP
modifications: residue 1 = (2S,4S)-4-aminoproline; residue 15 = D-Pro; backbone cyclised head to tail; disulfide Cys3-Cys13; 4-amino group of residue 1 acylated with PEG2-propanoyl capped by hex-5-ynamide
Kd (IgG [2]): < 100 nM

B22: Compound 72 (peptide)
peptide: cyclo(PDCAWHLGELVWCT[dP])
modifications: disulfide 3-13; not fully specified (residue 1); also: conjugate from starting material A144
Kd (IgG [1]): < 100 nM

B23: Compound 84 (peptide)
peptide: PDCAWHLGELVWCTP
modifications: residue 1 = (2S,4S)-4-aminoproline; residue 15 = D-Pro; backbone cyclised head to tail; disulfide Cys3-Cys13; 4-amino group of residue 1 acylated with the linker to the sugar ligands
Kd (IgG [1]): < 100 nM

B24: Compound 95 (peptide)
peptide: cyclo(PDCAWHLGELVWCT[dP])
modifications: disulfide 3-13; not fully specified (residue 1); also: 4-amino group of residue 1 acylated with linker to ASGPR ligands
Kd (IgG [1]): < 100 nM

B25: Compound 68 (peptide)
peptide: cyclo(PDCAWHLGELVWCT[dP])
modifications: disulfide 3-13; not fully specified (residue 1); also: 4-amino of residue 1 acylated with 4-(4-((4-(sugar-methyl)piperazin-1-yl)methyl)piperidin-1-yl)benzoic acid linker to ASGPR ligand (A140), one 6-(trifluoromethyl)pyrazin-2-ylamino sugar
Kd (IgG [1]): < 100 nM

B26: Intermediate 30 (peptide)
peptide: cyclo(PDCAWHLGELVWCT[dP])
modifications: disulfide 3-13; not fully specified (residue 1)
Kd (IgG [1]): < 100 nM

B27: Compound 92 (peptide)
peptide: cyclo(PDCAWHLGELVWCT[dP])
modifications: disulfide 3-13; not fully specified (residue 1); also: linker and ASGPR ligand(s) not given here
Kd (IgG [1]): < 100 nM

B28: Compound 64 (peptide)
peptide: cyclo(PDCAWHLGELVWCT[dP])
modifications: disulfide 3-13; not fully specified (residue 1); also: conjugate from starting material A125
Kd (IgG [1]): < 100 nM

B29: Intermediate 15 (peptide)
peptide: cyclo([Pro(4S-NH2)]ACSWHLGELVWCT[dP])
modifications: disulfide 3-13
SMILES: CC(C)C[C@@H]1NC(=O)[C@H](Cc2c[nH]cn2)NC(=O)[C@H](Cc2c[nH]c3ccccc23)NC(=O)[C@H](CO)NC(=O)[C@@H]2CSSC[C@H](NC(=O)[C@H](Cc3c[nH]c4ccccc34)NC(=O)[C@H](C(C)C)NC(=O)[C@H](CC(C)C)NC(=O)[C@H](CCC(=O)O)NC(=O)CNC1=O)C(=O)N[C@@H]([C@@H](C)O)C(=O)N1CCC[C@@H]1C(=O)N1C[C@@H](N)C[C@H]1C(=O)N[C@@H](C)C(=O)N2
Kd (IgG [1]): < 100 nM
Kd (IgG [2]): < 100 nM

B30: Compound 52 (peptide)
peptide: cyclo(PDCAWHLGELVWCT[dP])
modifications: disulfide 3-13; not fully specified (residue 1); also: conjugate: hex-5-ynoyl peptide clicked to azide A2
Kd (IgG [2]): < 100 nM

B31: Intermediate 4 (peptide)
peptide: PDCAWHLGELVWCTP
modifications: residue 1 = (2S,4S)-4-aminoproline; residue 15 = D-Pro; backbone cyclised head to tail; disulfide Cys3-Cys13; 4-amino group of residue 1 acylated with PEG4-propanoyl capped by hex-5-ynamide
Kd (IgG [1]): < 100 nM
Kd (IgG [2]): < 100 nM

B32: Compound 94 (peptide)
peptide: cyclo(PDCAWHLGELVWCT[dP])
modifications: disulfide 3-13; not fully specified (residue 1); also: 4-amino group of residue 1 acylated with linker to ASGPR ligands
Kd (IgG [1]): < 100 nM

B33: Intermediate 7 (peptide)
peptide: PDCAWHLGELVWCTP
modifications: residue 1 = (2S,4S)-4-aminoproline; residue 15 = D-Pro; backbone cyclised head to tail; disulfide Cys3-Cys13; 4-amino group of residue 1 acylated with 3-(2-(hex-5-ynamido)ethoxy)propanoyl
Kd (IgG [2]): < 100 nM

More lines, now with the values ahead:

Kd (IgG [1]): < 100 nM
B1: Compound 91 (peptide)
peptide: PDCAWHLGELVWCTP
modifications: not fully specified; residue 1 = (2S,4R)-4-aminoproline; residue 15 = D-Pro; backbone cyclised head to tail; disulfide Cys3-Cys13; 4-amino group of residue 1 acylated with the linker to the ASGPR ligand

Kd (IgG [1]): < 100 nM
B2: Compound 67 (peptide)
peptide: cyclo(PDCAWHLGELVWCT[dP])
modifications: disulfide 3-13; not fully specified (residue 1); also: conjugate from starting material A139

Kd (IgG [1]): < 100 nM
B3: Compound 86 (peptide)
peptide: PDCAWHLGELVWCTP
modifications: residue 1 = (2S,4S)-4-aminoproline; residue 15 = D-Pro; backbone cyclised head to tail; disulfide Cys3-Cys13; 4-amino group of residue 1 acylated with the linker to the sugar ligands

Kd (IgG [1]): < 100 nM
B4: Compound 63 (peptide)
peptide: cyclo(PDCAWHLGELVWCT[dP])
modifications: disulfide 3-13; not fully specified (residue 1); also: conjugate from starting material A40

Kd (IgG [1]): < 100 nM
Kd (IgG [2]): < 100 nM
B6: Compound 53 (peptide)
peptide: cyclo(PDCAWHLGELVWCT[dP])
modifications: disulfide 3-13; not fully specified (residue 1); also: conjugate: hex-5-ynoyl peptide clicked to azide A18

Kd (IgG [1]): < 100 nM
B7: Compound 51 (peptide)
peptide: cyclo(PDCAWHLGELVWCT[dP])
modifications: disulfide 3-13; not fully specified (residue 1); also: conjugate: hex-5-ynoyl peptide (Intermediate 48) clicked to one 6-(trifluoromethyl)pyrazin-2-ylamino sugar azide

Kd (IgG [1]): < 100 nM
B8: Compound 80 (peptide)
peptide: PDCAWHLGELVWCTP
modifications: not fully specified; residue 1 = (2S,4S)-4-aminoproline; residue 15 = D-Pro; backbone cyclised head to tail; disulfide Cys3-Cys13; 4-amino group of residue 1 acylated with the butanoyl-triazole linker to the ASGPR ligand

Kd (IgG [1]): < 100 nM
Kd (IgG [2]): < 100 nM
B9: Intermediate 12 (peptide)
peptide: cyclo([Pro(4S-NH2)]ACAWHLGELVWCT[dP])
modifications: disulfide 3-13
SMILES: CC(C)C[C@@H]1NC(=O)[C@H](Cc2c[nH]cn2)NC(=O)[C@H](Cc2c[nH]c3ccccc23)NC(=O)[C@H](C)NC(=O)[C@@H]2CSSC[C@H](NC(=O)[C@H](Cc3c[nH]c4ccccc34)NC(=O)[C@H](C(C)C)NC(=O)[C@H](CC(C)C)NC(=O)[C@H](CCC(=O)O)NC(=O)CNC1=O)C(=O)N[C@@H]([C@@H](C)O)C(=O)N1CCC[C@@H]1C(=O)N1C[C@@H](N)C[C@H]1C(=O)N[C@@H](C)C(=O)N2

Kd (IgG [1]): < 100 nM
B10: Intermediate 31 (peptide)
peptide: cyclo(PD[(S)‑2‑aminohex‑5‑enoic acid]AWHLGELVW[(S)‑2‑aminopent‑4‑enoic acid]T[dP])
modifications: staple 3-13

Kd (IgG [1]): < 100 nM
B11: Compound 66 (peptide)
peptide: cyclo(PDCAWHLGELVWCT[dP])
modifications: disulfide 3-13; not fully specified (residue 1); also: conjugate from starting material A138

Kd (IgG [1]): < 100 nM
B13: Compound 85 (peptide)
peptide: PDCAWHLGELVWCTP
modifications: residue 1 = (2S,4S)-4-aminoproline; residue 15 = D-Pro; backbone cyclised head to tail; disulfide Cys3-Cys13; 4-amino group of residue 1 acylated with the linker to the sugar ligands

Kd (IgG [1]): < 100 nM
B15: Intermediate 14 (peptide)
peptide: cyclo([Pro(4S-NH2)]DCSWHLGELVWCT[dP])
modifications: disulfide 3-13
SMILES: CC(C)C[C@@H]1NC(=O)[C@H](Cc2c[nH]cn2)NC(=O)[C@H](Cc2c[nH]c3ccccc23)NC(=O)[C@H](CO)NC(=O)[C@@H]2CSSC[C@H](NC(=O)[C@H](Cc3c[nH]c4ccccc34)NC(=O)[C@H](C(C)C)NC(=O)[C@H](CC(C)C)NC(=O)[C@H](CCC(=O)O)NC(=O)CNC1=O)C(=O)N[C@@H]([C@@H](C)O)C(=O)N1CCC[C@@H]1C(=O)N1C[C@@H](N)C[C@H]1C(=O)N[C@@H](CC(=O)O)C(=O)N2

Kd (IgG [1]): < 100 nM
Kd (IgG [2]): < 100 nM
B16: Intermediate 13 (peptide)
peptide: cyclo([Pro(4S-NH2)]NCAWHLGELVWCT[dP])
modifications: disulfide 3-13
SMILES: CC(C)C[C@@H]1NC(=O)[C@H](Cc2c[nH]cn2)NC(=O)[C@H](Cc2c[nH]c3ccccc23)NC(=O)[C@H](C)NC(=O)[C@@H]2CSSC[C@H](NC(=O)[C@H](Cc3c[nH]c4ccccc34)NC(=O)[C@H](C(C)C)NC(=O)[C@H](CC(C)C)NC(=O)[C@H](CCC(=O)O)NC(=O)CNC1=O)C(=O)N[C@@H]([C@@H](C)O)C(=O)N1CCC[C@@H]1C(=O)N1C[C@@H](N)C[C@H]1C(=O)N[C@@H](CC(N)=O)C(=O)N2

Kd (IgG [1]): < 100 nM
B17: Compound 62 (peptide)
peptide: cyclo(PDCAWHLGELVWCT[dP])
modifications: disulfide 3-13; not fully specified (residue 1); also: conjugate from acid A32

Kd (IgG [1]): < 100 nM
B18: Intermediate 8 (peptide)
peptide: PDCAWHLGELVWCTP
modifications: residue 1 = (2S,4S)-4-aminoproline; residue 15 = D-Pro; backbone cyclised head to tail; disulfide Cys3-Cys13; 4-amino group of residue 1 acylated (linker only in a drawing; the mass fits hex-5-ynoyl)

Kd (IgG [1]): < 100 nM
B19: Compound 65 (peptide)
peptide: cyclo(PDCAWHLGELVWCT[dP])
modifications: disulfide 3-13; not fully specified (residue 1); also: conjugate from starting material A137, ligand number not given here

Kd (IgG [1]): < 100 nM
B20: Compound 61 (peptide)
peptide: cyclo(PDCAWHLGELVWCT[dP])
modifications: disulfide 3-13; not fully specified (residue 1); also: conjugate: Intermediate 11 acylated with phenoxyacetic acid TFP ester carrying one 6-(trifluoromethyl)pyrazin-2-ylamino sugar

Kd (IgG [1]): < 100 nM
B21: Compound 69 (peptide)
peptide: cyclo(PDCAWHLGELVWCT[dP])
modifications: disulfide 3-13; not fully specified (residue 1); also: conjugate from starting material A141
